According to PMC6305201:

What was measured:
[1] = target: glycophorin A on red blood cells (human (endogenous in red blood cells)) (UniProt P02724)
[2] = target: glycophorin A on red blood cells (human (endogenous in red blood cells)) (UniProt P02724); remark: listed apart in the source

Substance: recombinant soluble region II (RII) of EBA-175 (domain or fragment)
- lowest concentration of RII at which RBC clustering was seen (confocal live imaging, picomolar and low nanomolar RII) [1]: 0.3 nM
- mean cluster area of RBCs under flow (1 dyn/cm^2), RII 1, 10 and 100 nM [2]: 1140 µm^2
